The source of these data is paper PMC7615827.

In the assay the target is ABD-AS25 (albumin binding domain fused to monobody AS25; ABD-…-AS25-Cys). As to the kind of experiment: ITC. (ITC needs no label: the signal is the heat of the interaction.)

What is called Kd is the constant that tells how readily two partners part at equilibrium. Read a high Kd as weaker binding. Substance “Human Serum Albumin (from UniProt P02768 25-609) (natural protein)” displayed a Kd of 5.11 nM. As a reminder, the stoichiometry N is the number of molecules, sites or subunits per partner or assembly. For “Bcr-Abl SH2 domain (from UniProt P00519 127-217) (domain or fragment)”, the Kd was found to be 42.4 nM and the stoichiometry N is 1.
